T1: human CCR4 (human, UniProt P51679 1-360)
T1 construct: also called hCCR4; human CCR4+ cells
T1 sequence: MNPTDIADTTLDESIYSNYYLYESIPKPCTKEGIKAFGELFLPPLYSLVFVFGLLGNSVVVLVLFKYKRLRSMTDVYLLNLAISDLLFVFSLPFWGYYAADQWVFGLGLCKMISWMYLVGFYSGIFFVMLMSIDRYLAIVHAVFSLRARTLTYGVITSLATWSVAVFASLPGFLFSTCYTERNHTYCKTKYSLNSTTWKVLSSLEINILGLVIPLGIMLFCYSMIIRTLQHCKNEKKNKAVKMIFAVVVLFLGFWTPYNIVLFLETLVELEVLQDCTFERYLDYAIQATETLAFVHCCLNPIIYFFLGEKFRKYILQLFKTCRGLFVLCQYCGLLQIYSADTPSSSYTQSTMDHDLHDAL


Experiments:
human CCR8 [1] = target: T2, human CCR8 (human, UniProt P51685 1-355); assay: cell-based or functional assay
cynomolgus monkey CCR8 = target: T3, cynomolgus monkey CCR8 (cynomolgus monkey, UniProt O97665 1-356 (rhesus entry)); assay: flow cytometry, chimeric IgG on CHO-cynoCCR8 cells
T3 construct: Full-length, stably expressed on CHO cells; also called cynoCCR8; CHO-cynoCCR8
Procedure: (§1) 5×10⁴ CHO-hCCR8 or CHO-cynoCCR8 cells were added per well in a 96-well U-shaped plate and centrifuged to discard the supernatant, 100 μL of a gradiently diluted anti-CCR8 chimeric antibody or anti-KLH isotype control antibody was added per well and the mixture was incubated on ice for 60 minutes. After the unbound primary antibody was washed away, 50 μL of a secondary antibody AlexaFluro647 anti-human IgG (Jackson Immuno Research #109-606-170) was added per well and the mixture was incubated on ice for 30 minutes. After the washing, 50 μL of 5 μg/mL of a PI/BSA solution was added to each well and the mixture was incubated on ice for 5 minutes. Then excess secondary antibody was washed away with 0.5% BSA, the cells were resuspended by adding a PBS solution, and binding of the antibody to the cells was detected using a flow cytometer (Intellicyte iQue). The fluorescence value of a Pi-negative cell population was analyzed. Cell-binding curves were fitted by Graphpad Prism 7 (FIG. 2). The chimeric antibodies of 87D8, 102H5, 109F6, 110G2, 113B3, 139A9, 144D2, etc. all bound with high affinities to human CCR8+ cells CHO-hCCR8 and cynomolgus monkey CCR8+ cells CHO-cynoCCR8.

human CCR8 [2] = target: T2, human CCR8; assay: flow cytometry, chimeric IgG on CHO-hCCR8 cells
Procedure: as §1

human CCR4 = target: T1, human CCR4; assay: flow cytometry of purified Fab on cells stably expressing human CCR4
Procedure: The positive clones obtained in example 1 were re-induced to express and purified to obtain a Fab antibody. The binding to cells stably expressing human CCR8, cynomolgus monkey CCR8 and human CCR4 was tested respectively, 5×10⁴ test cells were added to each well of a 96-well U-shaped plate and centrifuged to discard the supernatant, 100 μL/well of the purified Fab antibody was added and the mixture was incubated on ice for 60 minutes. After washing away the unbound primary antibody, 50 μL of a secondary antibody solution (Anti-human IgG, F(ab′)2-AF647, Jackson Immuno Research) was added to each well and the mixture was incubated on ice for 30 minutes. After washing, 50 μL of a PI/BSA solution at 5 μg/mL was added to each well and the mixture was incubated on ice for 5 minutes. Then excess secondary antibody was washed away with 0.5% BSA, the cells were resuspended by adding a PBS solution, and binding of the antibody to the cells was detected using a flow cytometer (Intellicyte iQue).

human CCR8 [3] = target: T2, human CCR8; assay: cell-based or functional assay; remark: listed apart in the source
human CCR8 [4] = target: T2, human CCR8; assay: cell-based or functional assay; remark: listed apart in the source
human CCR8 [5] = target: T2, human CCR8; assay: flow cytometry, purified Fab on CHO-hCCR8 cells

T2 sequence (P51685 whole entry): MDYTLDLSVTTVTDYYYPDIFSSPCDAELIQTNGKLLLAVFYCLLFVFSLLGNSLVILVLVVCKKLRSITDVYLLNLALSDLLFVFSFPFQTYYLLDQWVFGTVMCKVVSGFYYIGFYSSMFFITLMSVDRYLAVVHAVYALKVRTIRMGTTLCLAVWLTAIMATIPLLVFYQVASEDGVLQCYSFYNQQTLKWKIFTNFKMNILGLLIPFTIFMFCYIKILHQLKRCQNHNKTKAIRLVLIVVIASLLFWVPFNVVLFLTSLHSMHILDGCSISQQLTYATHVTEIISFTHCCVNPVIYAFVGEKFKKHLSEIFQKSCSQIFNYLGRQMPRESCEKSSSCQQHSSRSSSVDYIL
T3 sequence (O97665 other isoform, or with tags, fused parts or gaps): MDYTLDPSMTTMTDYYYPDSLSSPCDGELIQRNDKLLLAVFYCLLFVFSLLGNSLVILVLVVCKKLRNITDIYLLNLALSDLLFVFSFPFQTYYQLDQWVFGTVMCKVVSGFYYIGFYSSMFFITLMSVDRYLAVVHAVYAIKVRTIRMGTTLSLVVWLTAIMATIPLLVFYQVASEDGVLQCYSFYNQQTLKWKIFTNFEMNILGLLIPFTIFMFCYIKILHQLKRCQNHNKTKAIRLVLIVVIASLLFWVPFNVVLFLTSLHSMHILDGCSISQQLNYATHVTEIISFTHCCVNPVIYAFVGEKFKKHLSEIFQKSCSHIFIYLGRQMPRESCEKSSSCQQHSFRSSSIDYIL

| Binder | ADCC EC50 (nM), NK92-CD16A effectors, HEK293-hCCR8 targets, LDH release (human CCR8 [1]) | EC50 (cynomolgus monkey CCR8) | EC50 (human CCR8 [2]) | binding result (human CCR4) | further results |
| --- | --- | --- | --- | --- | --- |
| 102H5 anti-CCR8 chimeric antibody (antibody, V domains shown) VH: QVQLVESNGRLVQPKGSLKLSCAASGFTFNAYAMNWVRQAPGKGLEWVARIRSKSNNYATYYADSVKDRFTISRDDSQNMLYLQMNNLKTEDTAMYFCVRQKFGARGYYALDFWGQGATVTVSS VL: DIVLTQSPASLAVSLGQRATISCRASESVEYYGTSLMQWYQQKPGQPPKLLIYAASNVESGVPARFSGSGSGTDFSLNIHPVEEDDIAMYFCQQSRKVPYTFGGGTKLEIK | 0.06 nM | 1180 pM | 460 pM | – | – |
| 109F6 anti-CCR8 chimeric antibody (antibody, V domains shown) VH: QVQLVESNGRLVQPKGSLKLSCAASGFTFNAYAMNWVRQAPGKGLEWVARIRSKSNNYATYYADSVKDRFTISRDDSQSMLYLQMNNLKTEDTAMYFCVRQKFGARGYYALDFWGQGASVTVSS VL: DIVLTQSPASLAVSLGQRATISCRASKSVSTSGYSYMHWYQQKPGQPPKLLIYLASNLESGVPARFSGSGSGTDFTLNIHPVEEEDAATYYCQHSRELPPTFGGGTKLEIK | 0.07 nM | 740 pM | 200 pM | – | – |
| 116F10 Fab antibody (Fab, V domains shown, also called clone 116F10) VH: EVQLVESYGGLVQPKGSLKLSCAASGFTFNAYAMNWVRQAPGKGLEWVARIRSKSNNYATYYADSVKDRFTISRDDSQNILYLQMNNLKIEDTAMYFCVRQKFGSRGYYALDFWGQGASVTVSS VL: EIVLTQSPAIMSVSPGEKVTMTCRASSSVSSSYLHWYQQKSGASPKLWIYSTSTLASGVPARFSGSGSGTSYSLTISSVEAEDAATYYCQHYTVYPLGTFGGGTKLEIK | – | – | – | no binding | – |
| 139A9 Fab antibody (Fab, V domains shown, also called clone 139A9) VH: QVQLVESNGRLVQPKGSLKLSCAASGFTFNAYAMNWVRQAPGKGLEWVARIRSKSNNYATYYADSVKDRFTISRDDSQSMLYLQMNNLKTEDTAMYFCVRQKFGARGYYALDFWGQGASVTVSS VL: ENVLTQSPTTMAASPGEKITITCSASSSISSNYLHWYQQKPGFSPKLLIYRTSNLASGVPARFSGSGSGTSYSLTIGTMEAEDVATYYCQQGSSIPLTFGAGTKLELK | – | – | – | no binding | – |
| 102H5 Fab antibody (Fab, V domains shown, also called clone 102H5) VH: QVQLVESNGRLVQPKGSLKLSCAASGFTFNAYAMNWVRQAPGKGLEWVARIRSKSNNYATYYADSVKDRFTISRDDSQNMLYLQMNNLKTEDTAMYFCVRQKFGARGYYALDFWGQGATVTVSS VL: DIVLTQSPASLAVSLGQRATISCRASESVEYYGTSLMQWYQQKPGQPPKLLIYAASNVESGVPARFSGSGSGTDFSLNIHPVEEDDIAMYFCQQSRKVPYTFGGGTKLEIK | – | – | – | no binding | – |
| h87D8 H1K1 hIgG1 e5 (antibody, V domains shown) VH: EVQLVESGGGLVQPGGSLRLSCAASGFTFNTYAMNWVRQAPGKGLEWVARIRSKSNNYATYYADSVKGRFTISRDDSQSSLYLQMNSLRAEDTAVYYCVRGKEAGAYYAMDYWGQGTLVTVSS VL: DIVMTQSPLSLPVTPGEPASISCRSSKSLLHSNGNTYLYWFLQKPGQSPQLLIYRMSNLASGVPDRFSGSGSGTDFTLKISRVEAEDVGVYYCMQHLEYPLTFGQGTKLEIKR | – | – | – | – | ADCC EC50 (nM), PBMC FcγRIIIA158F/F effectors, HEK293-hCCR8 targets (human CCR8 [3]): 0.01 nM; ADCC EC50 (nM), PBMC FcγRIIIA158V/V effectors, HEK293-hCCR8 targets (human CCR8 [3]): 0.01 nM; ADCC maximal lysis rate, PBMC FcγRIIIA158F/F effectors, HEK293-hCCR8 targets (human CCR8 [3]): 70%; ADCC maximal lysis rate, PBMC FcγRIIIA158V/V effectors, HEK293-hCCR8 targets (human CCR8 [3]): 72%; ADCC maximal lysis rate, NK92-CD16A effectors, HEK293-hCCR8 targets (human CCR8 [4]): 58%; half-maximal effective concentration EC50 of inhibition of the Ca2+ current signal, CHO-hCCR8 cells, CCL1 stimulus (human CCR8 [4]): 5590 pM |
| 144D2 Fab antibody (Fab, V domains shown, also called clone 144D2; 144D2 (female parent)) VH: EVQLVESGGGLVQPKGSLKLSCAASGFTFNAFAMNWVRQAPGKGLEWVARIRSKSNNYATYYADSVIDRFTISRDDSQSMLYLQMNNLKTEDTAMYYCVRGKEAGAYYAMDYWGQGTSVTVSS VL: DIVMTQAAPSVPVTPGESVSISCRSSKSLLHSNGNTYLYWFLQRPGQSPQLLIYRMSNLASGVPDRFSGSGSGTAFTLRISRVEAEDVGVYYCMQHLEYPLTFGAGTKLEIK | – | – | – | no binding | EC50 (human CCR8 [5]): 2800 pM |

Continued, in another order:

| ADCC EC50 (nM), NK92-CD16A effectors, HEK293-hCCR8 targets, LDH release (human CCR8 [1]) | EC50 (cynomolgus monkey CCR8) | EC50 (human CCR8 [2]) | binding result (human CCR4) | Binder | further results |
| --- | --- | --- | --- | --- | --- |
| – | – | – | no binding | 113B3 Fab antibody (Fab, V domains shown, also called clone 113B3) VH: EVQLVESNGGLVQPKGSLKLSCAASGFTFNAYAMNWVRQAPGKGLEWVARIRSKSNNYATYYADSVKDRFTISRDDSQSMLYLQMNNLKTEDTAMYFCVRQKFGSRGYYALDFWGQGATVTVSS VL: QIVLTQSPAIMSASLGERVTMTCTASSSVSSSYLHWYQQKPGSSPKLWIYSTSNLASGVPARFSGSGSGTSYSLTISSMEAEDAATYYCHQYHRSPRTFGGGTRLEIK | – |
| – | – | – | no binding | 109F6 Fab antibody (Fab, V domains shown, also called clone 109F6) VH: QVQLVESNGRLVQPKGSLKLSCAASGFTFNAYAMNWVRQAPGKGLEWVARIRSKSNNYATYYADSVKDRFTISRDDSQSMLYLQMNNLKTEDTAMYFCVRQKFGARGYYALDFWGQGASVTVSS VL: DIVLTQSPASLAVSLGQRATISCRASKSVSTSGYSYMHWYQQKPGQPPKLLIYLASNLESGVPARFSGSGSGTDFTLNIHPVEEEDAATYYCQHSRELPPTFGGGTKLEIK | – |
| 0.04 nM | 1990 pM | 400 pM | – | 113B3 anti-CCR8 chimeric antibody (antibody, V domains shown) VH: EVQLVESNGGLVQPKGSLKLSCAASGFTFNAYAMNWVRQAPGKGLEWVARIRSKSNNYATYYADSVKDRFTISRDDSQSMLYLQMNNLKTEDTAMYFCVRQKFGSRGYYALDFWGQGATVTVSS VL: QIVLTQSPAIMSASLGERVTMTCTASSSVSSSYLHWYQQKPGSSPKLWIYSTSNLASGVPARFSGSGSGTSYSLTISSMEAEDAATYYCHQYHRSPRTFGGGTRLEIK | – |
| 0.1 nM | 1250 pM | 580 pM | – | 116F10 anti-CCR8 chimeric antibody (antibody, V domains shown) VH: EVQLVESYGGLVQPKGSLKLSCAASGFTFNAYAMNWVRQAPGKGLEWVARIRSKSNNYATYYADSVKDRFTISRDDSQNILYLQMNNLKIEDTAMYFCVRQKFGSRGYYALDFWGQGASVTVSS VL: EIVLTQSPAIMSVSPGEKVTMTCRASSSVSSSYLHWYQQKSGASPKLWIYSTSTLASGVPARFSGSGSGTSYSLTISSVEAEDAATYYCQHYTVYPLGTFGGGTKLEIK | – |
| – | – | – | no binding | 110G2 Fab antibody (Fab, V domains shown, also called clone 110G2) VH: QVQLVESNGRLVQPKGSLKLSCAASGFTFNAYAMNWVRQAPGKGLEWVARIRSKSNNYATYYADSVKDRFTISRDDSQSMLYLQMNNLKTEDTAMYFCVRQKFGARGYYALDFWGQGASVTVSS VL: EILLTQSPAIMSASPGEKVTMTCRASSSVSSSYLHWYQQKSGASPKLWIYSTSNLASGVPARFSGSGSGTSYSLTISSVEAEDAATYYCQQYSGYPYTFGGGTKLEIK | – |
| 0.06 nM | 1990 pM | 490 pM | – | 139A9 anti-CCR8 chimeric antibody (antibody, V domains shown) VH: QVQLVESNGRLVQPKGSLKLSCAASGFTFNAYAMNWVRQAPGKGLEWVARIRSKSNNYATYYADSVKDRFTISRDDSQSMLYLQMNNLKTEDTAMYFCVRQKFGARGYYALDFWGQGASVTVSS VL: ENVLTQSPTTMAASPGEKITITCSASSSISSNYLHWYQQKPGFSPKLLIYRTSNLASGVPARFSGSGSGTSYSLTIGTMEAEDVATYYCQQGSSIPLTFGAGTKLELK | – |
| 0.04 nM | 1260 pM | 450 pM | – | 110G2 anti-CCR8 chimeric antibody (antibody, V domains shown) VH: QVQLVESNGRLVQPKGSLKLSCAASGFTFNAYAMNWVRQAPGKGLEWVARIRSKSNNYATYYADSVKDRFTISRDDSQSMLYLQMNNLKTEDTAMYFCVRQKFGARGYYALDFWGQGASVTVSS VL: EILLTQSPAIMSASPGEKVTMTCRASSSVSSSYLHWYQQKSGASPKLWIYSTSNLASGVPARFSGSGSGTSYSLTISSVEAEDAATYYCQQYSGYPYTFGGGTKLEIK | – |

— patent publication US20250215097A1 (BEIJING TIANNUOJIANCHENG PHARMA TECH, published 2025)
